Laboratory results taken from US20250051409A1 (NATIONAL INSTITUTE FOR BIOTECHNOLOGY IN THE NEGEV, published 2025).

T1: citrate synthase (CS), located in the matrix (endogenous) (UniProt O75390 28-466)
T1 sequence (looked up): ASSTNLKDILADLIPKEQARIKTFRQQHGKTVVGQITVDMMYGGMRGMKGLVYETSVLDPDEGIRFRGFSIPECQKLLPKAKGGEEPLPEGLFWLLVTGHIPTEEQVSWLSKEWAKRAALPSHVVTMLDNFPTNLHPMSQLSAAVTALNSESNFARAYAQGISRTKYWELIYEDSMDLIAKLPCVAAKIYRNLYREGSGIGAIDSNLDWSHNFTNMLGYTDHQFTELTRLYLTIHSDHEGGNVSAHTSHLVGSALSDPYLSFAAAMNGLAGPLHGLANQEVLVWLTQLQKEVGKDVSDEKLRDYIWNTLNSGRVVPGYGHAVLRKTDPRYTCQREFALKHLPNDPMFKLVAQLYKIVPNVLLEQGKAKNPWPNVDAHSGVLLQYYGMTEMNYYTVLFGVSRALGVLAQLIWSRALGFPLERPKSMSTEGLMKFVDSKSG


Tests used:
[1] = biological target: T2, ATP synthase subunit 5A, inner mitochondria membrane protein (endogenous) (UniProt P25705 44-553, limits assumed); experiment: in situ proximity ligation assay
T2 construct: also called ATPsyn5a; ATP5a
T2 sequence (P25705 44-553 limits assumed): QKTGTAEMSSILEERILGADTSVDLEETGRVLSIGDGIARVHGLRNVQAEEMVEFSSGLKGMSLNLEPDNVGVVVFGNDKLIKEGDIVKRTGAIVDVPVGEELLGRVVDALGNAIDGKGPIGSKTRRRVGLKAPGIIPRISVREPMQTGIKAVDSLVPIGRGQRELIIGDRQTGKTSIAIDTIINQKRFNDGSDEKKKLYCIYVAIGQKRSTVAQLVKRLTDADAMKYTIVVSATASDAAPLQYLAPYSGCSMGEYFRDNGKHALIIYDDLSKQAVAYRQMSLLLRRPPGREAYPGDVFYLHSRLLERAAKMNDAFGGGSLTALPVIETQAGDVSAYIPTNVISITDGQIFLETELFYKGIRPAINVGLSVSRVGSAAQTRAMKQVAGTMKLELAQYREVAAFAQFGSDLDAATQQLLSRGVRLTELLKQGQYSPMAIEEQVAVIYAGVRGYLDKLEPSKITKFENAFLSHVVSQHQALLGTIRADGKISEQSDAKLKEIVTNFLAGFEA

[2] = biological target: T1, citrate synthase (CS), located in the …; experiment: in situ proximity ligation assay

binding result [1]	binding result [2]	Binder
no binding		SMAC/Diablo, endogenous, in A549 cells and A549 xenograft tumor sections (other, human, UniProt Q9NR28 56-239, looked up, Intracellular endogenous protein, detected with antibodies in the proximity ligation assay) AVPIAQKSEPHSLSSEALMRRAVSLVTDSTSTFLSQTTYALIEAITEYTKAVYTLTSLYRQYTSLLGKMNSEEEDEVWQVIIGARAEMTSKHQEYLKLETTWMTAVGLSEMAAEAAYQTGADQASITARNHIQLVKLQVEEVHQLSRKAETKLAEAQIEELRQKTQEEGEERAESEQEAYLRED
	no binding	PSD, endogenous, in A549 cells (enzyme, Intracellular endogenous protein, detected with antibodies in the proximity ligation assay; also called phosphatidylserine decarboxylase) MMCQSEARQGPELRAAKWLHFPQLALRRRLGQLSCMSRPALKLRSWPLTVLYYLLPLGALRPLSRVGWRPVSRVALYKSVPTRLLSRAWGRLNQVELPHWLRRPVYSLYIWTFGVNMKEAAVEDLHHYRNLSEFFRRKLKPQARPVCGLHSVISPSDGRILNFGQVKNCEVEQVKGVTYSLESFLGPRTCTEDLPFPPAASCDSFKNQLVTREGNELYHCVIYLAPGDYHCFHSPTDWTVSHRRHFPGSLMSVNPGMARWIKELFCHNERVVLTGDWKHGFFSLTAVGATNVGSIRIYFDRDLHTNSPRHSKGSYNDFSVVGSLTR
